Patent publication US8383581B2, “Short-chain peptides as parathyroid hormone (PTH) receptor agonist” (Cadila Healthcare Limited, priority 2009, dated 2013)
*1 amine or outer side, *2 acyl side, *3 side chain or, on linkers, in order; H or OH if unused. Where no end group is shown, it is not given here. [ ]: non-standard residue; d: D form. αMe‑APPA = 2-amino-2-methyl-5-phenylpentanoic acid, C[C@@](CCCc1ccccc1)(N[*:1])C(=O)[*:2]; Bip(2'-Et-4'-OMe) = CCc1cc(OC)ccc1-c1ccc(C[C@H](N)C(=O)O)cc1; αMePhe(2,6-F2) = C[C@](N)(Cc1c(F)cccc1F)C(=O)O; αMePhe(2-F) = C[C@](N)(Cc1ccccc1F)C(=O)O; αMeW = C[C@](N)(Cc1c[nH]c2ccccc12)C(=O)O; αMeNle = CCCC[C@](C)(N[*:1])C(=O)[*:2]; αMe‑Bip(OMe) = α-methylated Bip(OMe); hhPhe = N[C@@H](CCCc1ccccc1)C(=O)O; hArg = N=C(N)NCCCC[C@H](N)C(=O)O; hCit = NC(=O)NCCCC[C@H](N)C(=O)O; αMeF = C[C@](N)(Cc1ccccc1)C(=O)O; Cit = NC(=O)NCCC[C@H](N)C(=O)O; αMeV = CC(C)[C@](C)(N)C(=O)O; αMeM = CSCC[C@](C)(N)C(=O)O; αMeP = C[C@@]1(C(=O)O)CCCN1; Nle = CCCC[C@H](N)C(=O)O; Orn = NCCC[C@H](N)C(=O)O; Ac5c = NC1(C(=O)O)CCCC1; Ac3c = NC1(C(=O)O)CC1; Aib = CC(C)(N)C(=O)O

T1: rat PTH-1R (rat PTHR endogenously expressed on UMR-106 rat osteosarcoma cells) (rat, UniProt P25961 27-591)
T1 sequence (looked up): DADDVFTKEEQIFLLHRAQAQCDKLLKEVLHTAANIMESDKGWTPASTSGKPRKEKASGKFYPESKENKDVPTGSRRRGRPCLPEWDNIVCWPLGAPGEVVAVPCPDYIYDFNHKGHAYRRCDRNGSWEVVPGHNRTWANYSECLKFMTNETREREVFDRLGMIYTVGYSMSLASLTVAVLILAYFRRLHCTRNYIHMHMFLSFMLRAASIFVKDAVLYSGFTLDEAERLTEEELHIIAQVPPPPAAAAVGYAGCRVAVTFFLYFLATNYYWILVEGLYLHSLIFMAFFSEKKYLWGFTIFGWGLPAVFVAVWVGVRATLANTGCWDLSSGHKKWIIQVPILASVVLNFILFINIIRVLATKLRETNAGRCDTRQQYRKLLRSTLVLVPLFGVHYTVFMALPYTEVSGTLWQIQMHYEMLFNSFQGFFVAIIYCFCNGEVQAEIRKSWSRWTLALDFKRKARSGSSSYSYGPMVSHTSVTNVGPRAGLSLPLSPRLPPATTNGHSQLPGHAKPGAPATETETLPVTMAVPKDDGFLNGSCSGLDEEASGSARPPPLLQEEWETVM


Target: T1, rat PTH-1R (rat PTHR endogenously …)
Experiment: cell-based or functional assay

cAMP released with respect to control, 1 nM peptide, UMR-106 cells | cAMP released with respect to control, 10 nM peptide, UMR-106 cells | cAMP released with respect to control, 100 nM peptide, UMR-106 cells | Binder
26 percent of control | 79 percent of control | 97 percent of control | [Ac3c]V[Aib]EIQ[αMePhe(2,6-F2)][Nle]HQ[hArg][Aib]K[αMeF] [Seq. ID. 41]
38 percent of control | 91 percent of control | 120 percent of control | [Aib]V[Aib]EIQL[Nle]HQ[hArg]A[hArg][αMe‑Bip(OMe)][hhPhe] [Seq. ID. 899]
34 percent of control | 88 percent of control | 116 percent of control | [Aib]V[Aib]EIQ[αMePhe(2,6-F2)][Nle]HQ[hArg][Aib][αMePhe(2,6-F2)][αMePhe(2-F)] [Seq. ID. 212]
16 percent of control | 41 percent of control | 52 percent of control | V[Ac5c]V[Aib]EIQL[αMeNle]HQ[hArg]A[hArg][Bip(2'-Et-4'-OMe)][αMe‑APPA] [Seq. ID. 925]
26 percent of control | 67 percent of control | 81 percent of control | V[Ac3c]V[Aib]EIQL[αMeM]HQ[hArg]A[hArg][αMeW][αMe‑APPA] [Seq. ID. 950]
31 percent of control | 72 percent of control | 100 percent of control | [Aib]V[Aib]EIQ[αMePhe(2,6-F2)][Nle]HQ[αMePhe(2,6-F2)][Aib][Aib][Bip(2'-Et-4'-OMe)][hhPhe] [Seq. ID. 886]
16 percent of control | 41 percent of control | 52 percent of control | [Aib]V[Aib]EIQLMHQ[hArg][Aib]K[αMeF] [Seq. ID. 9]
31 percent of control | 89 percent of control | 106 percent of control | [Aib]V[Ac5c]EIQ[αMePhe(2,6-F2)][Nle]HQ[hArg][Aib][Cit][αMePhe(2,6-F2)] [Seq. ID. 156]
39 percent of control | 104 percent of control | 120 percent of control | V[Aib]V[Aib]EIQL[Nle]HQ[hArg]A[hArg][Bip(2'-Et-4'-OMe)][αMe‑APPA] [Seq. ID. 905]
32 percent of control | 71 percent of control | 99 percent of control | [Ac5c]V[Ac5c]EIQ[αMePhe(2,6-F2)][Nle]HQ[hArg][Aib][Aib][αMePhe(2,6-F2)] [Seq. ID. 198]
32 percent of control | 74 percent of control | 100 percent of control | [Ac5c]V[Aib]EIQ[αMePhe(2,6-F2)][Nle]HQ[Orn][Aib][αMePhe(2,6-F2)][Bip(2'-Et-4'-OMe)][hhPhe] [Seq. ID. 841]
19 percent of control | 42 percent of control | 59 percent of control | [Aib]V[Aib]EIQ[αMePhe(2,6-F2)][Nle]HQ[hCit][Aib][αMePhe(2,6-F2)][Bip(2'-Et-4'-OMe)][hhPhe] [Seq. ID. 872]
19 percent of control | 66 percent of control | 84 percent of control | [Ac3c]V[Aib]EIQ[αMePhe(2-F)][Nle]HQ[hArg][αMeP]K[αMePhe(2-F)] [Seq. ID. 59]
22 percent of control | 50 percent of control | 70 percent of control | [Aib]V[Aib]EIQ[αMePhe(2,6-F2)][Nle]HQ[hCit]A[Cit][Bip(2'-Et-4'-OMe)][hhPhe] [Seq. ID. 860]
42 percent of control | 101 percent of control | 110 percent of control | [Aib]V[Aib]EIQ[αMePhe(2-F)][Nle]HQ[hArg][αMeP]K[αMePhe(2,6-F2)] [Seq. ID. 91]

More lines, now with the values behind:

Binder | cAMP released with respect to control, 1 nM peptide, UMR-106 cells | cAMP released with respect to control, 10 nM peptide, UMR-106 cells | cAMP released with respect to control, 100 nM peptide, UMR-106 cells
[Ac5c]V[Ac5c]EIQ[αMePhe(2,6-F2)][Nle]HQ[hArg][Aib][αMePhe(2,6-F2)][αMePhe(2,6-F2)] [Seq. ID. 238] | 38 percent of control | 91 percent of control | 120 percent of control
[Aib]V[Aib]EIQ[αMePhe(2,6-F2)][Nle]HQ[hArg][Aib][Cit][Bip(2'-Et-4'-OMe)][hhPhe] [Seq. ID. 820] | 14 percent of control | 48 percent of control | 66 percent of control
[Ac3c]V[Aib]EIQ[αMePhe(2,6-F2)][Nle]HQ[hArg][Aib][Aib][αMePhe(2-F)] [Seq. ID. 174] | 31 percent of control | 72 percent of control | 100 percent of control
[Ac3c]V[Aib]EIQ[αMePhe(2,6-F2)][Nle]HQ[hArg][αMeP]K[αMePhe(2,6-F2)] [Seq. ID. 110] | 12 percent of control | 39 percent of control | 72 percent of control
[Ac5c]V[Aib]EIQ[αMePhe(2,6-F2)][Nle]HQ[hArg]AK[αMeF] [Seq. ID. 49] | 16 percent of control | 56 percent of control | 73 percent of control
[Aib]V[Aib]EIQL[αMeM]HQ[hArg]A[hArg][αMeW][hhPhe] [Seq. ID. 942] | 29 percent of control | 52 percent of control | 69 percent of control
[Aib]V[Aib]EIQ[αMePhe(2,6-F2)][Nle]HQ[hArg][Aib][Cit][αMePhe(2-F)] [Seq. ID. 132] | 29 percent of control | 82 percent of control | 101 percent of control
[Ac5c]V[Ac5c]EIQ[αMePhe(2-F)][Nle]HQ[hArg][αMeP]K[αMePhe(2-F)] [Seq. ID. 65] | 34 percent of control | 82 percent of control | 104 percent of control
[αMeV][Ac5c]V[Aib]EIQL[αMeM]HQ[hArg]A[hArg][Bip(2'-Et-4'-OMe)][αMe‑APPA] [Seq. ID. 926] | 18 percent of control | 51 percent of control | 72 percent of control
[αMeV][Ac5c]V[Aib]EIQL[αMeM]HQ[hArg]A[hArg][αMeW][αMe‑APPA] [Seq. ID. 954] | 36 percent of control | 88 percent of control | 116 percent of control
V[Ac3c]V[Aib]EIQL[αMeNle]HQ[hArg]A[hArg][αMePhe(2-F)][αMe‑APPA] [Seq. ID. 935] | 38 percent of control | 102 percent of control | 117 percent of control
[Aib]V[Ac5c]EIQ[αMePhe(2,6-F2)][Nle]HQ[hArg][αMeP]K[αMePhe(2-F)] [Seq. ID. 78] | 23 percent of control | 73 percent of control | 93 percent of control
